Laboratory results from paper PMC7515697 (2020).

T1: X. albilineans Cas8f–Cas5f heterodimer (Xanthomonas albilineans)
T1 chain 1: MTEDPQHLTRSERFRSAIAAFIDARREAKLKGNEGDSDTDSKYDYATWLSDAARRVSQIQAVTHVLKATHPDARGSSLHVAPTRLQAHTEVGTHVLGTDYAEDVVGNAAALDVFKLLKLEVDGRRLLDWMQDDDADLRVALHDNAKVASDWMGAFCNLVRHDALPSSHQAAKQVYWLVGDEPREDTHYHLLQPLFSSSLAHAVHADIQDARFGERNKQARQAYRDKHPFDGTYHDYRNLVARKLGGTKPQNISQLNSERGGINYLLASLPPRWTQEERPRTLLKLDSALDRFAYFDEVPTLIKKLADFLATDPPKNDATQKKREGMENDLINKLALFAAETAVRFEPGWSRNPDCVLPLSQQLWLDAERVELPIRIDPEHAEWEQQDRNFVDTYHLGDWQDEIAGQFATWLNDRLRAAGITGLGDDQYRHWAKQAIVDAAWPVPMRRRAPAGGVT
T1 chain 2: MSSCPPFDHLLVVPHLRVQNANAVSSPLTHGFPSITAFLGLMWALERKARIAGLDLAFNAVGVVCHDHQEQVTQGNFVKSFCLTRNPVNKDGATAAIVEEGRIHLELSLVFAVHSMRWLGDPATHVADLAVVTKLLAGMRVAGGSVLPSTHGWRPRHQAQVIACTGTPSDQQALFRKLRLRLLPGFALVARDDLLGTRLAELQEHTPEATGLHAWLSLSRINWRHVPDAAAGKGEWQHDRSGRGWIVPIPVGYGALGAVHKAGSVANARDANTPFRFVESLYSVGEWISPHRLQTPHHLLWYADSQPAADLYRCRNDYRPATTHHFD


Tests used:
[1] = molecular target: X. albilineans Cas8f–Cas5f heterodimer (Xanthomonas albilineans); assay: ITC; 250 μM AcrIF7 in the syringe titrated into 35 μM Cas8f–Cas5f in the cell; 20 mM Tris–HCl pH 7.5, 150 mM NaCl, 1 mM TCEP, 25°C; one-site binding model
[2] = molecular target: X. albilineans Cas8f(K248E)–Cas5f heterodimer (Xanthomonas albilineans); assay: as above
[3] = molecular target: X. albilineans Cas8f(K29E)–Cas5f heterodimer (Xanthomonas albilineans); assay: as above
[4] = molecular target: X. albilineans Cas8f–Cas5f heterodimer (Xanthomonas albilineans); assay: ITC; as the standard ITC but with 500 mM NaCl instead of 150 mM
[5] = molecular target: T1, X. albilineans Cas8f–Cas5f heterodimer; assay: ITC; 500 mM NaCl

Row | Molecule | Kd [1] | dH [1] | stoichiometry N [1] | also measured
1 | AcrIF7 E46K/E47K (natural protein) | 46 nM | -17 kcal/mol | 0.8 | –
2 | AcrIF7 D28K/D29K (natural protein) | 179 nM | -12.9 kcal/mol | 0.75 | –
3 | AcrIF7 (a.a. 1–67) (natural protein) | 46 nM | -17.1 kcal/mol | 0.78 | Kd [2]: 1870 nM; dH [2]: -16 kcal/mol; stoichiometry N [2]: 0.78; Kd [3]: 327 nM; dH [3]: -14.5 kcal/mol; stoichiometry N [3]: 0.83; fold reduction of the strength of the interaction at 500 mM NaCl against 150 mM NaCl [4]: 2.7 fold
4 | AcrIF7 E33K/E34K (natural protein) | 4850 nM | -9.5 kcal/mol | 0.9 | –
5 | AcrIF7 E18K (natural protein) | 49 nM | -19.6 kcal/mol | 0.88 | –
6 | AcrIF7 D57K (natural protein) | 333 nM | -12.7 kcal/mol | 0.77 | –
7 | AcrIF7 E22K (natural protein) | 50 nM | -15.6 kcal/mol | 0.75 | –
8 | AcrIF7 D13K (natural protein) | 2450 nM | -14.2 kcal/mol | 0.72 | –
9 | AcrIF7 (a.a. 1–67) (natural protein) MTTFTSIVTTNPDFGGFEFYVEAGQQFDDSAYEEAYGVSVPSAVVEEMNAKAAQLKDGEWLNVSHEA | – | – | – | Kd [5]: 124 nM
